Laboratory results reported in PMC8960412.

What was measured:
[1] = target: anti-huPD-1-huGITR-L bispecific (Anti-PD-1-GITR-L-hIgG1-LALA) (human) (UniProt Q9UNG2); assay: SPR; bispecific captured as in the human SPR, recombinant human or cynomolgus GITR-His as analyte; cross-species experiment (Supplementary Table 11)
[2] = target: isotype/huGITR-L-hIgG1-LALA (human); assay: SPR; Biacore T200; antibody constructs captured by goat anti-human H+L on a CM5 chip, recombinant human GITR-His as analyte; global 1:1 fit (Supplementary Table 3)
[3] = target: anti-huPD-1-huGITR-L bispecific (Anti-PD-1-GITR-L-hIgG1-LALA) (human) (UniProt Q9UNG2); assay: as above
[4] = target: isotype-hIgG1-LALA (human); assay: SPR; as for human FcRn/β2m: samples immobilised, cyno FcRn/β2m as analyte; pH 6.0
[5] = target: anti-PD-1-hIgG1-LALA (human); assay: as above
[6] = target: isotype/huGITR-L-hIgG1-LALA (human); assay: as above
[7] = target: anti-huPD-1-huGITR-L bispecific (Anti-PD-1-GITR-L-hIgG1-LALA) (human) (UniProt Q9UNG2); assay: as above
[8] = target: isotype-hIgG1-LALA (human); assay: SPR; Biacore T200; samples directly immobilised by amine coupling, human FcRn/β2m as analyte; running buffer pH 6.0
[9] = target: anti-PD-1-hIgG1-LALA (human); assay: as above
[10] = target: isotype/huGITR-L-hIgG1-LALA (human); assay: as above
[11] = target: anti-huPD-1-huGITR-L bispecific (Anti-PD-1-GITR-L-hIgG1-LALA) (human) (UniProt Q9UNG2); assay: as above
[12] = target: human GITR on transfected HEK293 cells (human) (UniProt Q9Y5U5); assay: flow cytometry on cells; human GITR-HEK293 cells incubated with a serial dilution of antibodies; detected with PE goat anti-human IgG F(ab')2

anti-PD-1-hIgG1-LALA (human), sequence (heavy, as listed by the source, chain 1 of 2): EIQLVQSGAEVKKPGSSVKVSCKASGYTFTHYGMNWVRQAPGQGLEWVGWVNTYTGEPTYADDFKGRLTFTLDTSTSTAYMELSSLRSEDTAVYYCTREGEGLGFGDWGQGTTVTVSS
anti-PD-1-hIgG1-LALA (human), sequence (light, as listed by the source, chain 2 of 2): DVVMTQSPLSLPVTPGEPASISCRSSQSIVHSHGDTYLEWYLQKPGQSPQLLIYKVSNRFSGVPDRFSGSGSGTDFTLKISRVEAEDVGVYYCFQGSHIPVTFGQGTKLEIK

Which results are given for “Cyno GITR-His (recombinant extracellular domain of cynomolgus GITR) (domain or fragment)”?
Kd [1]: 0.79 nM; koff [1]: 0.00087 s⁻¹; kon [1]: 1.1e+06 M⁻¹ s⁻¹

What does the source list for “Hu GITR-His (recombinant extracellular domain of human GITR) (from UniProt Q9Y5U5 26-162) (domain or fragment)”?
Kd [2]: 15 nM; koff [2]: 0.0016 s⁻¹; kon [2]: 110000 M⁻¹ s⁻¹; Kd [3]: 16 nM; koff [3]: 0.0017 s⁻¹; kon [3]: 110000 M⁻¹ s⁻¹; Kd [1]: 1.8 nM; koff [1]: 0.001 s⁻¹; kon [1]: 560000 M⁻¹ s⁻¹

How did the Kd [4] turn out when “cyno FcRn/β2m heterodimer (from UniProt Q8SPV9 24-365; Q8SPW0 21-119) (complex)” was run?
The Kd was 1700 nM.

What about the Kd [5] of the same substance?
The Kd was 1900 nM.

And the Kd [6]?
The Kd was 2200 nM.

What about the Kd [7] of the same substance?
The Kd was 2000 nM.

“human FcRn/β2m heterodimer (from UniProt P55899 24-297; P61769 21-119) (complex)” was tested. Which Kd [8] did it give?
The Kd was 2000 nM.

What about the Kd [9] of the same substance?
The Kd was 2200 nM.

And the Kd [10]?
The Kd was 2400 nM.

And the Kd [11]?
Its Kd is 2300 nM.

How did the EC50 [12] turn out when isotype/huGITR-L-hIgG1-LALA was run?
Its EC50 is 0.9 nM.
